Consider one molecule from patent publication US20160304625A1.

Experiment [1] deals with mIgM proximal domain peptide conjugated to keyhole limpet hemocyanin (human). The experiment can be described thus: ELISA, KLH-PDm.
For experiment [2] the target is unchanged. Nature of the experiment: competition ELISA on mIgM-PD-KLH, competitor unlabeled mAb 3.
The target is the same in experiment [3]. Nature of the experiment: competition ELISA on KLH-mIgM-PD, competitor unlabeled mAb 1.
For experiment [4] the target is unchanged. Nature of the experiment: competition ELISA on KLH-mIgM-PD, competitor unlabeled mAb 3.
The target is the same in experiment [5]. The experiment can be described thus: competition ELISA on mIgM-PD-KLH, competitor unlabeled mAb 2.
The target is the same in experiment [6]. Nature of the experiment: competition ELISA on mIgM-PD-KLH, competitor unlabeled mAb 1.
Experiment [7] has the same target. Nature of the experiment: ELISA direct binding, mIgM-PD-KLH.
Experiment [8] shares this target. Nature of the experiment: competition ELISA on KLH-mIgM-PD, competitor unlabeled mAb 2.
Experiment [9] shares this target. Nature of the experiment: competition ELISA on KLH-mIgM-PD, competitor unlabeled mAb 4.
Experiment [10] shares this target. Nature of the experiment: competition ELISA on mIgM-PD-KLH, competitor unlabeled mAb 4.

B1: monoclonal antibody mAb4-2b (antibody, mouse IgG1, V domains shown)
VH: EVQLEESGAELVKPGASLKLSCKASGYTFTSYWMNWVKQRPGQGLEWIGIIHPNSGSTNYNEKFKTKATLTVDKSSSTAYMQLSSLTSEDSAVYYCARTRGNYGMDYWGQGTSVTVSS
VL: DIVMTQSHKFMSTSVGDRVSITCKASQDVSTAVAWYQQKPGQSPTLLIYSASYRNTGVPDRFTGSGSGTDFTFTISSVQAEDLAVYYCQQHFSIPPLTFGAGTKLELKR
B1: the results for the ELISA reading in [1] and in experiment [7] were 0.9 and 0.5, respectively. For the same molecule, the mAb-HRP binding after blocking by unlabeled mAb stood at 62 in experiment [2]; 74 in experiment [3]; 72 in experiment [4]; 71 in experiment [5]; 52 in experiment [6]; 68 in experiment [8]. In addition, the mAb-HRP binding after blocking by unlabeled mAb in experiment [9] came to 14; in experiment [10], 9.
